PMC4274154, “DEAF1 Binds Unmethylated and Variably Spaced CpG Dinucleotide Motifs”

T1: DEAF1-FLAG (UniProt O75398 1-565)
T1 sequence: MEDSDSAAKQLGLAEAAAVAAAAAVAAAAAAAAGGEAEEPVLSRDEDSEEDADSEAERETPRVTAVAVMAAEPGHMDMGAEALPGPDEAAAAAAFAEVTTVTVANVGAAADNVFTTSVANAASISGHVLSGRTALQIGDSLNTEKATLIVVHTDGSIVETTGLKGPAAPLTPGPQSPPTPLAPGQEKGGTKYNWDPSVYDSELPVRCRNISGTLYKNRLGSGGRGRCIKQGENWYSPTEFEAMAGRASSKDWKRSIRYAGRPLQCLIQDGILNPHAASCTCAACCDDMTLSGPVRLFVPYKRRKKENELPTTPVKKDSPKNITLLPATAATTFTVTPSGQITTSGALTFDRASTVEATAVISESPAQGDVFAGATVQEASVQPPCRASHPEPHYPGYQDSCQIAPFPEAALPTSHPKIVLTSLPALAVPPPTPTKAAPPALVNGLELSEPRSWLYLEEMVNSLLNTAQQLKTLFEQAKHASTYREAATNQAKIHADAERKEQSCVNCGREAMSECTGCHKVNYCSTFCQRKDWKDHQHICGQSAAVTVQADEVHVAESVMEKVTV

B1: 8mut (TTCGGG to AACGCC in both half-sites) (dsDNA)
DNA 1: TTGAGAACGCCAAACAACGCCCTCAA
DNA 2: TTGAGGGCGTTGTTTGGCGTTCTCAA
B2: 6-space probe (two TTCGGG motifs) (dsDNA)
DNA 1: TTGAGTTCGGGTGTTCGGGCTCAA
DNA 2: TTGAGCCCGAACACCCGAACTCAA
B3: 6-space methylated probe (dsDNA)
DNA 1: TTGAGTTCGGGTGTTCGGGCTCAA
DNA 2: TTGAGCCCGAACACCCGAACTCAA
modifications: 5-methylcytosine on both strands at the CpG of the second half-site
B4: 11-space probe (dsDNA)
DNA 1: TTGAGTTCGGGAAAAAACTTCGGGCTCAA
DNA 2: TTGAGCCCGAAGTTTTTTCCCGAACTCAA
B5: 10-space probe (dsDNA)
DNA 1: TTGAGTTCGGGAAAAACTTCGGGCTCAA
DNA 2: TTGAGCCCGAAGTTTTTCCCGAACTCAA
B6: 8-space probe (two TTCGGG motifs) (dsDNA)
DNA 1: TTGAGTTCGGGAAACTTCGGGCTCAA
DNA 2: TTGAGCCCGAAGTTTCCCGAACTCAA
B7: 6mut (TTCGGG to AACGCC in both half-sites) (dsDNA)
DNA 1: TTGAGAACGCCTGAACGCCCTCAA
DNA 2: TTGAGGGCGTTCAGGCGTTCTCAA
B8: 9-space probe (dsDNA)
DNA 1: TTGAGTTCGGGAAAACTTCGGGCTCAA
DNA 2: TTGAGCCCGAAGTTTTCCCGAACTCAA
B9: EIF4G3 promoter probe (dsDNA)
DNA 1: ACTTCGGACTTTTTCGGAAT
DNA 2: ATTCCGAAAAAGTCCGAAGT

Each binder was assayed against T1, DEAF1-FLAG (assay: EMSA; EMSA: 200 ng DEAF1-FLAG, 30 min at room temperature, 1x EMSA binding buffer (composition and pH not given), 1 ug dA:dT, 5% native polyacrylamide gel). Conditions: protein: recombinant; tags: FLAG; chain copies: 2; label: 32P.

Binder	binding result
B1	no binding
B2	binds
B3	no binding
B4	binds
B5	binds
B6	binds
B7	no binding
B8	binds
B9	binds
